# Source: patent US20080280298A1, “SATB1: A DETERMINANT OF MORPHOGENESIS AND TUMOR METASTASIS” (The Regents of the University of California, priority 2005, published 2008)
# B1: SATB1-shRNA2: shRNA against the SATB1 3′UTR, target GTCCACCTTGTCTTCTCTC (SEQ ID NO: 9); SEQ ID NOs: 6/7, expressed from pSUPER-puro (nucleic acid)
# chain 1: GATCCCCGTCCACCTTGTCTTCTCTCTTCAAGAGAGAGAGAAGACAAGGTGGACTTTTTGGAAA
# chain 2: AGCTTTTCCAAAAAGTCCACCTTGTCTTCTCTCTCTCTTGAAGAGAGAAGACAAGGTGGACGGG
# modifications: the letters are possibly those of the target site
# B2: SATB1-shRNA1: shRNA against the SATB1 coding region, target GGATTTGGAAGAGAGTGTC (SEQ ID NO: 8); SEQ ID NOs: 4/5, expressed from pSUPER-puro (nucleic acid)
# chain 1: GATCCCCGGATTTGGAAGAGAGTGTCTTCAAGAGAGACACTCTCTTCCAAATCCTTTTTGGAAA
# chain 2: AGCTTTTCCAAAAAGGATTTGGAAGAGAGTGTCTCTCTTGAAGACACTCTCTTCCAAATCCGGG
# modifications: target site or template, no part of the molecule
# Key:
# MDA-MB-231 cells [1] = assay: Experimental metastasis assay, tail vein injection into athymic mice, lung nodules; format: in vivo, mouse; conditions: 1×10^6 cells i.v., nine weeks, six mice
# Procedure: The removal of SATB1 from MDA-MB-231 (aggressive) cells diminished metastatic activity: SATB1-shRNA1 MDA, SATB1-shRNA2 MDA, and control cells (1×10^6 cells) were injected intravenously into the lateral tail vein of 6-week-old athymic mice to evaluate metastasis of these cancer cell lines to lung. In mice, the metastasis of orthotopically grown tumors derived from human MDA-MB-231 cells is a relatively rare event. Therefore, by directly introducing cells into the circulation, we examined the requirement of SATB1 in cancer cell survival in circulation and extravasation to and growth in the lung. By nine weeks after tumor-cell injection, the lungs of mice injected with the control cells had formed numerous nodules, ranging in number from 125 to 160 per lung in all six mice analyzed (FIG. 11a,b). […]
# 1×10^6 cells MDA-MB-231 cells expressing control-shRNA, SATB1-shRNA1 or SATB1-shRNA2 MDA cells were injected into the tail veins of each mouse, and lungs were examined for metastatic nodules (arrows) 9 weeks later. […] In FIG. 11b, total numbers of metastatic lung nodules from individual mice were counted under a dissection microscope. For lungs of representative mice indicated, human SATB1 expression levels in human breast cancer cells colonized in lungs were analyzed by RT-PCR using human GAPDH as a loading control, with the use of human SATB1 and GAPDH specific oligomers. […]
# MDA-MB-231 cells [2] = assay: Cell growth assay on plastic (2D) and Matrigel (3D); format: cell-based, human; conditions: 2D and 3D cultures up to 11 days, compared with parental cell line and control cells
# From the text: Reduction of cell proliferation rate. We examined whether loss of SATB1 expression affects cancer cell proliferation by culturing SATB1-shRNA1 MDA and SATB1-shRNA2 MDA cells on plastic dish {two-dimensional (2D) culture} or on a reconstituted basement membrane derived from Engelbreth-Holm-Swarm Tumor (Matrigel™) {three-dimensional (3D) culture}.
# Cell Growth Assay. […] Growth medium were renewed every 4 days. Cells were harvested by trypsin treatment, and counted at each time point using a cell counter (Beckman Coulter, Inc.; Fullerton, Calif.) and haematocytometer. […] Cells were treated with dispase (BD Biosciences, Inc.) for 2 h at 37° C. to be isolated from Matrigel, incubated with trypsin for further 5 min, and counted using a haematocytometer. […]
# MDA-MB-231 cells [3] = assay: Cell morphology and immunostaining in 3D Matrigel culture; format: cell-based, human; conditions: F-actin, β-catenin, integrin α6 immunostaining
# Procedure: Changes in cell morphology. Referring now to FIG. 5, phase contrast micrographs of MDA-MB-231 control cells (control shRNA) or SATB1-shRNA1 MDA cells (SATB1-shRNA1) cultured on plastic (2D) and matrigel (3D) are shown. Major differences in cell morphology were observed when SATB1-shRNA1 MDA cells were grown in 3D culture, compared to control cells. The cell morphology was changed from stellate-like scattered (MDA-MB-231 with control shRNA) to spherical structures (MDA-MB-231 with SATB1-shRNA). […] In addition, MDA-MB-231 cells expressing SATB1-shRNA were able to basally deposit and organize a basement membrane on Matrigel, showing the characteristic acini formation, even though there was a minor difference in morphology as observed in MCF10A control cells.
# Immunostaining of cells in culture. Total 1×10^4 cells mixed with Matrigel (5 mg/mL) were plated in 6-well plates pre-coated in a thick layer (1 mm) of Matrigel. Solidified Matrigel was overlaid with Growth medium (DMEM), and renewed at every 4 days. Colony formation and cell morphology was observed under light microscopy after 3 days to 14 days.
# Cells were fixed in 4% paraformaldehyde, permeablized in 0.1% Triton X100, and blocked in 5% BSA. […] Staining was detected with secondary Alexa Fluor 488 and/or Alexa Fluor 594 Abs (Molecular Probes). […]
# SATB1 = SATB1 expression in MDA-MB-231 cells stably transfected with shRNA (Western blot, real-time RT-PCR); format: cell-based, human; conditions: for Expression of SATB1 was lowered by / SATB1 expression levels: MDA-MB-231 cells stably expressing the shRNA; for SATB1 expression levels: remaining expression; for SATB1 expression (in words): Western blot and quantitative RT-PCR, compared to parental MDA-MB-231 cells
# Procedure: It was then tested whether suppression of SATB1 level in the highly metastatic MDA-MB-231 cells would affect their aggressiveness. Short hairpin-interfering RNAs (shRNA) were successfully designed to target SATB1 expression and are identified herein as SEQ ID NOs: 4-7.
# Two shRNAs were designed according to SATB1 sequence (GenBank Accession No. NM_002971, hereby incorporated by reference) using siRNA Target Finder (Ambion, Austin, Tex.); The sequences of each oligoduplex were targeted as follows: shRNA2423, 5′-GGATTTGGAAGAGAGTGTC-3′ (SEQ ID NO: 8), or shRNA2595, 5′-GTCCACCTTGTCTTCTCTC-3′ (SEQ ID NO: 9). The oligoduplexes were cloned into the plasmid pSUPER (Oligoengine, Seattle, Wash.). Prepared DNAs were transfected into the aggressive breast cancer cell line MDA-MB-231 by lipofectamine 2000 (Invitrogen) and successfully transfected cells were selected by puromycin at 2 μg/ml or G418 at 1.5 mg/ml from 24 h after transfection. Single MDA-MB-231 cell clone stably expressing either shRNA2423 or shRNA2595 is designated SATB1-shRNA1 MDA or SATB1-shRNA2 MDA cells, respectively. For overexpression of SATB1, full length of SATB1 including 3′UTR was cloned into retroviral vector pLXSN (Clontech, Mountain View, Calif.), and the viral solution was produced using PT67 package cell lines. Hs578T cells were infected with this viral solution, and stably infected cells were selected by G418 at 0.8 mg/ml for 5 days. The status of SATB1 level in manipulated MDA-MB-231 and Hs578T cells were examined by Western blot and real-time RT-PCR.
# To evaluate the change of gene expression level depending on SATB1 status, semi-quantitative or real-time RT-PCR analysis of selected genes was performed (primer sequences are available upon request). Total RNA was extracted for cell lines using TR1 reagent (Sigma) followed by RNA clean-up with RNeasy Mini kit (Qiagen, Valencia, Calif.). For semi-quantitative RT-PCR, 5 μg of total RNA was reverse-transcribed into single stranded cDNA using Superscript II RNaseH-reverse transcriptase (Invitrogen) according to the protocol supplied with the kit. PCR cycle was controlled starting from 25 to 40 cycles upon gene-specific primers (20 ng of cDNA/reaction). Each cycle consisted of the following steps, using GeneAmp PCR system 9700 (PerkinElmer Inc., Fremont, Calif.); 94° C. for 30 s, 55° C. for 30 s, and 72° C. for 60 s. PCR products were separated on 1.5% agarose gels and visualized them by staining with ethidium bromide. SYBR Green PCR Core Reagents system was used for real-time monitoring of amplification on ABI 7500 Fast Real-time PCR System (Applied Biosystems, Foster City, Calif.). Absolute quantification method was employed to quantify target DNA fragments in triplicate with following cycling condition; 95° C. for 2 min, followed by 40 cycles of 95° C. for 3 s and 60° C. for 30 s.
# MDA-MB-231 cells [4] = assay: Boyden chamber invasion assay; format: cell-based, human; conditions: remaining invasiveness
# Procedure: Boyden chamber assay. Boyden chamber chemo-migration assays were performed using a 24-well chemotaxis chamber (BD biosciences, Inc.). Breast cancer cells were seeded in triplicate at 50,000 cells/well onto the upper chambers with a 8 μm polycarbonate filter membrane coated with diluted Matrigel (10-25%) (BD biosciences, Inc.), and incubated at 37° C. in humidified 5% CO2 for 20 hrs. Conditioned media derived from NIH3T3 fibroblast cultures was used as a chemoattractant in the lower chambers. The migrated cells on underside of chambers were fixed in 10% (wt/vol) buffered-formalin and stained with crystal violet. After removal of cells remaining in the top chamber with a cotton swab, the numbers of cells that had migrated through the pores were assessed by light microscopy.
# MDA-MB-231 cells [5] = assay: Gene expression profiling (Affymetrix and Codelink microarrays); format: cell-based, human; conditions: >1.5-fold, under both plastic and Matrigel culture, versus control shRNA
# From the text: We performed gene expression profiling on MDA-MB-231 cells expressing either control shRNA or SATB1-shRNA1 grown in culture. […] We also categorized those affected genes based on the gene ontology (GO)(URL: <http//www.geneontology.org/index.shtml>) annotation.
# MDA-MB-231 cells [6] = assay: Tumor growth in mammary fat pads of athymic nude mice; format: in vivo, mouse; conditions: 6 mice, clone or pool of cells; controls formed large tumors within 39 days (6/6)
# From the text: We injected control and SATB1-shRNA1 cells into the fourth mammary fat pads of athymic nude mice and monitored tumor growth.
Molecule,lung metastases observed (in words) (MDA-MB-231 cells [1]),number of lung metastases (nodules per lung) (MDA-MB-231 cells [1]; control cells 125 to 160 per lung),proliferation rates (MDA-MB-231 cells [2]),cell morphology in 3D culture (MDA-MB-231 cells [3]),Expression of SATB1 was lowered by (SATB1),SATB1 expression levels (SATB1),SATB1 expression (in words) (SATB1),invasiveness compared with host MDA-MB-231 cells (MDA-MB-231 cells [4]),downregulated genes upon SATB1 depletion (Tree 1) (MDA-MB-231 cells [5]),upregulated genes upon SATB1 depletion (Tree 2) (MDA-MB-231 cells [5]),tumor growth in mammary fat pads (MDA-MB-231 cells [6])
B1,not observed in five out of six mice,five,significantly reduced,"organized and polarized morphology, forming acinus-like structures",90%,12.5%±5.2,greatly reduced,20%,,,
B2,,,significantly reduced,"organized and polarized morphology, forming acinus-like structures",70%,30.4%±3.7,greatly reduced,20%,409 genes,456 genes,either no tumors or greatly reduced tumor growth
